This note sets out measurements from patent publication US20220127377A1 (DIACCURATE, published 2022).

In the assay the target is T1, human PLA2-GIB (mature, active form) (human, UniProt P04054 23-148).
T1 construct: Recombinant human PLA2GIB standard in the ELISA, and endogenous PLA2GIB of patient plasma in the functional assays; also called GIBsPLA2; sPLA2-GIB
Kind of assay: sandwich ELISA, coated capture mAb, recombinant human standard. On the procedure:
Sandwich ELISAs specific to proPLA2-GIB, PLA2GIB or both forms were performed using mAbs previously generated. For the detection of proPLA2GIB, the #8G11 mAb was used as a capture antibody and the #1C11 mAb was used as a revelation mAb. For the detection of PLA2GIB, the #14G9 mAb was used as a capture antibody and the #1C11 mAb was used as a revelation mAb. For the detection of both forms, the #7A10 mAb was used as a capture antibody and the #1C11 mAb was used as a revelation mAb. Typical assay conditions were as follows: #8G11- or #14G9-coated microplate was incubated for one hour with recombinant human proPLA2GIB or PLA2GIB standards (varying concentrations of protein in assay buffer) to generate a calibration curve. EDTA plasma samples were diluted (5- to 50-fold) in dilution buffer to their respective wells and the ELISA plate was incubated for 1 h at room temperature. […] Following washing with PBS containing 0.05% Tween 20, the binding of mAb was detected by treatment with a Streptavidin-HRP conjugate for 15 min at room temperature. TMB was added, reaction was stopped and absorbance at 450 nm was determined on a microplate reader. Signals were analyzed with a 4-parameter fit analysis using Prism™ software (Graph Pad).

T1 sequence (P04054 23-148): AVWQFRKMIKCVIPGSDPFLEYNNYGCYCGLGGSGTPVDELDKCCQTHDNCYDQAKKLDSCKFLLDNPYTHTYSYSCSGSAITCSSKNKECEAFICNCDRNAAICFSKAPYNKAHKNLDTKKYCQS

B1: monoclonal antibody 14G9 (antibody, V domains shown)
VH: QVQLQQPGAELVKPGASVKLSCKASGYTFTNYWIHWVKRRPGQGLEWIGNIDPSDTRTHYNQKFKDKATLAVDKSSSTAYMQLSSLTSEDSAVFYCARQTLYYEALDYWGQGTTLTVSS
VL: DIVMTQSHKLMSTSVGDRVSITCKASQDVSTAVAWYQEKPGQSPKLLIYWASTRHTGVPNRFTGSRSGTDYTLTISSVQAEDLALYYCQQDYSTPPTFGAGTKLELKR
notes: also called #14G9 mAb; clone 14G9
On to B1, for which the binding result was “binds”.
